Data: publication PMC3615900

Columns and labels:
Conditions in all cases: reference: wild type; sites S248
[1] = target: V5-14-3-3β (UniProt P31946); assay: co-IP with αV5, blot αFlag
[2] = target: 14-3-3β (UniProt P31946); assay: Flag-Rubicon complex purification, immunoblot
[3] = target: 14-3-3β (UniProt Q9CQV8); assay: co-IP with αFlag, blot α14-3-3β

Measured: binding against the reference

Rubicon (from UniProt Q92622) S248A
lost: [1] | [2] | [3]
